Experimental data reported in patent US20140302063A1 (SECRETARY OF STATE FOR HEALTH, published 2014).

B1: R1a-G5 (VHH)
VHH: QLQLVESGGGLVQPGGSLRLSCAASGSISRIVTMGWYRQASGKERELVAVIGNYGNTNYADSVKGRFTVSRDNAKDTAYLQMNGLNVEDTAIYYCKTSTTTPPYEYWGQGTQVTVSS
B2: R1a-F4 (VHH)
VHH: QVQLVESGGGLVQPGGSLRLSCAASGSISRIVTMGWYRQGPGKERELVAVIGNYGNTNYADSVKGRFTVSRDNAKDTAYLQMNNLNVEDTAMYYCKCSTTTPPHEFWGQGTQVTVSS
B3: R2b-D9 (VHH)
VHH: QVQLVESGGGLVQPGGSLRLSCLASGSAFSLYTMGWYRQAPGNQRELVAAITSGESTNYADSVKGRFTISRDNAKNTVYLQMNSLKPEDTAVYYCNADPLSTGWGQYSYWGQGTQVTVSS
B4: R1a-A5 (VHH)
VHH: QVQLVESGGGLVQPGGSLRLSCSASGSAVLFSTYPMSWYRQAPGKQRELVAAVTTDGSTSYADYAKGRFTISRDNAKNTVYLQMNSLKPEDTAVYYCNARDGFFNRYDYWGQGTQVTVSS
B5: R2b-D8 (VHH)
VHH: QVQLVESGGGLVQPGGSLRLSCAASGFTFSWYDVGWYRRAPGKERELVADIASTRGTTNYADSVKGRFTISRDNAKNSVYLQMNSLKPEDTAVYYCNTRRDWRDYWGQGIQVTVSS
B6: R1a-C5 (VHH)
VHH: QVQLVESGGGLVQPGGSLRLSCAASNDIFSFYTMGWYLQAIGKQREPVAVIGNGGNTNYAESVKGRFTISRDGAKNTAYLQMNSLKPEDTAVYYCMASGPGGLNVWGQGTQVTVSS
B7: R1a-E5 (VHH)
VHH: QLQLVESGGGLVQPGGSLRLSCTASGFSLDNYAIGWFRRAPGEEREGVSFITSTSAVTKYADSVKGRFTISRDNAKNTVYLQMTSLKPEDTAVYYCAGTRWVPTMKADEYNYWGQGTQVTVSS
B8: R2b-E8 (VHH)
VHH: QVQLVESGGGLVQPGGSLRLSCAASGSFFSRYRMGWYRQAPGEQRELVAGITYDDSTNYAGSVKGRFTISRDNAKNTVHLQMNSLKPEDTAVYYCNLNPPGNLYWGQGTQVTVSS
B9: R1a-F5 (VHH)
VHH: QLQLVESGGGLVQVGGSLRLSCAASGFPFDGYAIAWFRQAPGKEREGVSCRASDGNTYYAESLKGRLTMSTDNAKNTVYLQMNSLKPEDTAVYYCAAASWVASLWSPSEYDYWGQGTQVTVSS
B10: R1a-B6 (VHH)
VHH: QVQLVESGGGLVQPGGSLRLSCAASGSFFSRYRMGWYRQAPGEQRELVASIAYDGSTSYADPVKGRFTISRDNANTVHLQMYSLKPDDTAVYYCNLDPPGILYWGQGTQVTVSS
B11: R1a-E6 (VHH)
VHH: QVQLVESGGGLVQPGGSLRLSCAASGFTLGAYAIAWFRQAPGKEREGVSCISPSDSFTEYGDSVKGRFTVSRDNAKNTVYLQMNSLQPEDTAVYYCAADPVCTAGWYRPSRFDLWGQGTQVTVSS
B12: R1a-G6 (VHH)
VHH: QVQLVESGGGLVQSGGSLRLSCAASGSMSRIITMGWYRQAPGMERELVAVIGNNDNTVYGDSVQGRFTVSRDNAKNTAYLQMNSLNAEDTAMYYCKISTLTPPHEYWGQGTQVTVSS
B13: R1a-H6 (VHH)
VHH: QVQLVESGGGLVQAGDSLRLSCTASVLTFSLYRVGWFRQAPGKEREFVAAIDWGDGPTTYADSVKGRFTISRDNAERTAYLQINSLKPEDTAVYYCGAGNTGSSDRSSSYVHWGQGTQVTVSS
B14: R2a-E8 (VHH)
VHH: QLQLVESGGGLVQPGGSLRLSCTASGDIFVMYMIDWYRQAPGKQRELVASIDGRGTPMYADSVKGRFTISRDNAKNTVYLQMNSLKPEDTAVYSCHAKSPLVDNEYWGQGTQVTVSS
B15: R2a-G8 (VHH)
VHH: QLQLAESGGGLVQAGGSLRLSCAASGSTLNNNAIGWFRQAPGKEREGVSCMNSRDGTTNYADSVKGRFTISRDVAKNTVYLQMNSLKPEDTAVYFCAVKGFAPFLIGCPWGKAEYDYWGQGTQVTVSS
B16: R2a-B9 (VHH)
VHH: QVQLVESGGGLVQPGGSLRLSCAASGSAFSINAMGWYRQAPGEEREFVAAITAGGNTYYADSAKARFTISRDNAKNMLYLQMNSLKPEDTAMYYCAATKAFGIATITADYELWGQGTQVTVSS
B17: R2a-F9 (VHH)
VHH: QVQLVESGGGLVQPGGSLRLSCSASGSISSIVTMGWYRQAPGKERELVAVIGNYGNTNYADSVKGRFTVSRDNAKNTVYLQMNSLNVEDTAMYVCKFSSTVAPHEYWGQGTQVTVSS
B18: R2a-G9 (VHH)
VHH: QVQLVESGGGLVQPGGSLRLSCAASDNIFSFYTMGWYRQSPGKERELVAVIGNGGNTNYADSVKGRFTISRDNGKNKAHLQMNSLKPEDTAVYYCKASGPGGVEVWGQGTQVTVSS
B19: R2a-H9 (VHH)
VHH: QVQLVESGGGLVQPGGSLRLSCAASTNIASFYTMGWYRQTPGQQRDVVAVIGNGGNTNYADSVKGRFTISRDGAKNTAHLQMNSLKPEDTDVYYCKASGPGGVILWGQGTQVTVSS

Experiments:
[1] = target: A/California/7/2009 (H1N1) inactivated viral preparation (Influenza A virus A/California/7/2009 (H1N1)); experiment: ELISA, inactivated virus
[2] = target: A/Brisbane/59/2007 (H1N1-like) inactivated viral preparation (Influenza A virus A/Brisbane/59/2007 (H1N1-like)); experiment: ELISA, inactivated virus

| Binder | EC50 [1] | EC50 [2] |
| --- | --- | --- |
| B1 | 1.73 µg/mL | 0.29 µg/mL |
| B2 | 0.79 µg/mL | – |
| B3 | 0.9 µg/mL | 0.8 µg/mL |
| B4 | 0.31 µg/mL | 0.38 µg/mL |
| B5 | – | 14.8 µg/mL |
| B6 | 1.71 µg/mL | 3.3 µg/mL |
| B7 | 3.23 µg/mL | – |
| B8 | 3.64 µg/mL | 18.4 µg/mL |
| B9 | 0.55 µg/mL | 0.7 µg/mL |
| B10 | 0.39 µg/mL | 0.58 µg/mL |
| B11 | 2.46 µg/mL | – |
| B12 | 0.3 µg/mL | – |
| B13 | 3.85 µg/mL | – |
| B14 | 0.51 µg/mL | 1.42 µg/mL |
| B15 | 4.11 µg/mL | 1.86 µg/mL |
| B16 | 1 µg/mL | 9.84 µg/mL |
| B17 | 0.19 µg/mL | – |
| B18 | 0.3 µg/mL | – |
| B19 | 0.97 µg/mL | – |
